Laboratory results as given in US20250269056A1 (published 2025).

Molecular target: T1, epidermal growth factor receptor (EGFR) on EGFR-expressing cell lines (HeLa, HT-29, MRC-5, A549) (UniProt P00533 25-1210)
T1 construct: whole, on cells; EGFR expression in the cell lines was verified by Western blot; HEK293T served as the EGFR-negative line; also called EGF receptor
Test: fluorescence microscopy of Alexa Fluor 488-labelled phage on HeLa cells

B1: M13KO7 helper phage (no display) (other)
chain: AETVESCLAKPHTENSFTNVWKDDKTLDRYANYEGCLWNATGVVVCTGDETQCYGTWVPIGLAIPENEGGGSEGGGSEGGGSEGGGTKPPEYGDTPIPGYTYINPLDGTYPPGTEQNPANPNPSLEESQPLNTFMFQNNRFRNRQGALTVYTGTVTQGTDPVKTYYQYTPVSSKAMYDAYWNGKFRDCAFHSGFNEDPFVCEYQGQSSDLPQPPVNAGGGSGGGSGGGSEGGGSEGGGSEGGGSEGGGSGGGSGSGDFDYEKMANANKGAMTENADENALQSDAKGKLDSVATDYGAAIDGFIGDVSGLANGNGATGDFAGSNSQMAQVGDGDNSPLMNNFRQYLPSLPQSVECRPFVFSAGKPYEFSIDCDKINLFRGVFAFLLYVATFMYVFSTFANILRNKES
notes: mature; Whole phage particle without a ligand, labelled with Alexa Fluor 488 in the localisation experiment; also called EGF- phage; non-displaying phage
binding result: no binding (tested: 5×10^7 virions/mL)
